{"source": "patent US5824529", "key": {"[1]": {"tested_on": "PshAI restriction endonuclease (native) (Plesiomonas shigelloides)", "assay": "cleavage_in_vitro", "conditions": "total activity in Mono Q peak, assayed on lambda DNA"}, "[2]": {"tested_on": "PshAI restriction endonuclease (recombinant, pPshAIR1, NEB#984) (Plesiomonas shigelloides)", "assay": "cleavage_in_vitro", "conditions": "crude extract, NEBuffer 2, 30 C, 30 min"}}}
{"substance": "lambda DNA", "values": [{"measurement": "activity", "setting": "[1]", "result": 250000, "unit": "units"}, {"measurement": "activity (units/g cells)", "setting": "[2]", "result": "1e+07"}]}
